Assays:
[1] = target: TupBlac (Tupanvirus deep ocean MBL fold protein AUL78925.1) (Tupanvirus deep ocean, UniProt A0AC62AAK8); assay: LC-MS of penicillin G hydrolysis and benzylpenilloic acid formation; format: biochemical; settings: sulbactam 10 µg/mL, penicillin G 10 µg/mL, room temperature, up to 48 h; inhibition qualitative, mechanism not determined
[2] = system: O=C(Cc1cccs1)N[C@@H]1C(=O)N2C(C(=O)O)=C(/C=C/c3ccc([N+](=O)[O-])cc3[N+](=O)[O-])CS[C@H]12; assay: purified protein; settings: PBS pH 7.4, promiscuous beta-lactamase activity

## CC1(C)[C@H](C(=O)O)N2C(=O)C[C@H]2S1(=O)=O [sulbactam]
[1]
  LC-MS of penicillin G hydrolysis and benzylpenilloic acid formation: both penicillin G degradation and benzylpenilloic acid appearance were inhibited by sulbactam

## TupBlac (Tupanvirus deep ocean MBL fold protein AUL78925.1) (Tupanvirus deep ocean)
[2]
  Km: 160 ± 5 µM
  kcat: 8.8 × 10^–4 ± 8.5 × 10^–5 s^−1

From publication PMC7729979, “A protein of the metallo-hydrolase/oxidoreductase superfamily with both beta-lactamase and ribonuclease activity is linked with translation in giant viruses” (Scientific Reports, 2020)
